Measured values published in publication PMC11955550.

Key:
[1] = molecular target: α-synuclein (αSyn) amyloid fibrils (UniProt P37840); assay: co-sedimentation; αSyn fibrils 20 µM (monomer) with DNAJB1 8 µM in low-salt HD buffer (50 mM HEPES, 2 mM DTT, pH 7.50), 30 min at 30 °C; 17,000 g 30 min; pellet and supernatant on SDS-PAGE, densitometry
[2] = molecular target: α-synuclein (αSyn) amyloid fibrils (UniProt P37840); assay: co-sedimentation; αSyn fibrils 20 µM (monomer) with DNAJB1 8 µM in HKMD buffer (50 mM HEPES, 50 mM KCl, 5 mM MgCl2, 2 mM DTT, pH 7.50), 30 min at 30 °C; 17,000 g 30 min; pellet and supernatant on SDS-PAGE, densitometry

Substance: wild-type DNAJB1 (from UniProt P25685 1-340) (natural protein)
- percent bound [1]: 80%
- percent bound [2]: 40%
